Consider 1 molecule from paper doi:10.1101/2022.11.10.515958 (bioRxiv, 2022).

This assay concerns the target T1, GST-Whi7 (S. cerevisiae, UniProt P36167 1-246).
T1 sequence (looked up): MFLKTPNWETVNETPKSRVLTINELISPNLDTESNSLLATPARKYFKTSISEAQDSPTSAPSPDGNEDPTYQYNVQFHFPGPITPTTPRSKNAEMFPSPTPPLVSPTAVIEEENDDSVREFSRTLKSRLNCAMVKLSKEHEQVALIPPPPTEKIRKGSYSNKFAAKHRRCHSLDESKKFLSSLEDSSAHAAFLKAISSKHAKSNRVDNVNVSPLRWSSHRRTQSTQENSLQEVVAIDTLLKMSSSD
In words: pull-down.

B1: Cks1-ALFA (natural protein, S. cerevisiae, UniProt P20486 1-150, looked up)
chain: MYHHYHAFQGRKLTDQERARVLEFQDSIHYSPRYSDDNYEYRHVMLPKAMLKVIPSDYFNSEVGTLRILTEDEWRGLGITQSLGWEHYECHAPEPHILLFKRPLNYEAELRAATAAAQQQQQQQQQQQQQQQQHQTQSISNDMQVPPQIS
Consider B1, for which the binding result is given as “binds”.
